This is an account of results in patent US20250326860A1 (ADAGENE PTE, published 2025).

Experiment [1] has as its target T1, human CD3 on cells (Jurkat cells, human T cells) (human, UniProt P07766 23-207).
T1 construct: whole, on cells
Nature of the experiment: binding to human CD8+ T cells.

The target of experiment [2] is T1, human CD3 on cells (Jurkat cells, human …). Nature of the experiment: flow cytometry, human CD3+ T cells.
For experiment [3], the target named is T2, cynomolgus monkey CD3 on T cells (cynomolgus monkey, UniProt Q95LI5 22-198).
T2 construct: whole, on cells
T2 sequence (Q95LI5 22-198): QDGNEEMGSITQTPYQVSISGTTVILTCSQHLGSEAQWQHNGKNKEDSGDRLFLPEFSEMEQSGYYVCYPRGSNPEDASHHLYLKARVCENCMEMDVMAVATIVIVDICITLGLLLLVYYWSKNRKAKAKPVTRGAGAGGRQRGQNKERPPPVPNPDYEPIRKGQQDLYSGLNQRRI
Nature of the experiment: flow cytometry, purified monkey CD3+ T cells. A general note: Flow cytometry measures light scatter and fluorescence of single cells or particles in a stream.

The target in experiment [4] is T3, human CD20 on cells (human B cells; Raji, SU-DHL-8, SU-DHL-4, A3KAW, NAMALWA) (human, UniProt P11836 1-297).
T3 construct: whole, on cells
T3 sequence (looked up): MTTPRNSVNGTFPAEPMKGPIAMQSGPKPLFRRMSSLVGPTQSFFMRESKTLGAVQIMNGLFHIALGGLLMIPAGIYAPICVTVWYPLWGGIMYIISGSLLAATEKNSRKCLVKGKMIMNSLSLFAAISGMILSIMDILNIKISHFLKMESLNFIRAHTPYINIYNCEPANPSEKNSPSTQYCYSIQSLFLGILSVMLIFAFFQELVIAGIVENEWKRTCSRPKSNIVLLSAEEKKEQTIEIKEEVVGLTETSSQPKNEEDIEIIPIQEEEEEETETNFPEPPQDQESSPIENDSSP
The experiment is described as follows: flow cytometry, SU-DHL-8 cells. The protocol: (§1) Raji, SU-DHL-8, SU-DHL-4, A3KAW and NAMALWA were B-cell lymphoma cell lines with various CD20 expression levels on cell surface. Briefly, the test antibodies were serial diluted and were incubated with the tumor cells on ice. After washing, the cells were subsequently incubated with the APC-labelled anti-human-Fc secondary antibody (BioLegend) on ice. The cells were then washed with PBS prior to analysis by the CytoFLEX flow cytometer (Beckman Coulter). The data was analyzed by FlowJo software.

For experiment [5], the target named is T3, human CD20 on cells (human B cells; …). Nature of the experiment: flow cytometry, A3KAW cells. The protocol:
as §1

Experiment [6] deals with T1, human CD3 on cells (Jurkat cells, human …). Nature of the experiment: binding to human CD3+ T cells.
Experiment [7] has as its target T3, human CD20 on cells (human B cells; …). Nature of the experiment: flow cytometry, SU-DHL-4 cells. The protocol: as §1
Experiment [8] has as its target T1, human CD3 on cells (Jurkat cells, human …). The experiment is described as follows: binding to human CD4+ T cells.
Experiment [9] has as its target T3, human CD20 on cells (human B cells; …). The experiment is described as follows: flow cytometry, Raji cells. As to the method: as §1
The target is the same in experiment [10]. Nature of the experiment: binding to human B cells.
Experiment [11] has as its target T4, cynomolgus monkey CD20 on B cells (cynomolgus monkey, UniProt M4ZHZ6 1-297).
T4 construct: whole, on cells
T4 sequence: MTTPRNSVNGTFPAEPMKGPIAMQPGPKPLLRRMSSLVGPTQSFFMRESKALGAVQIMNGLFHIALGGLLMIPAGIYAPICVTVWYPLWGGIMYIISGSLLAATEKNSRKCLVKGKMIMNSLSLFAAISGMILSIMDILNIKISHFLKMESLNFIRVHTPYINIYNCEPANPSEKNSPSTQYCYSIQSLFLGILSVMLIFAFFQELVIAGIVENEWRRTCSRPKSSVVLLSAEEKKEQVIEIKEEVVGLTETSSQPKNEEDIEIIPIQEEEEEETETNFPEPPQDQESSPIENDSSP
The experiment is described as follows: flow cytometry, monkey B cells. The source says: (§2) Human and monkey PBMCs were isolated as mentioned above. Human B cells were further isolated from PBMCs using the EasySep™ Human B Cell Isolation Kit (Stem Cell Technologies). Monkey B cells were isolated from PBMCs using the Non-Human B Primate Cell Isolation Kit (Stem Cell Technologies). Purified human or monkey B cells were stained with the testing antibodies as the primary antibody and the APC-labelled anti-human-Fc antibody (BioLegend) as the secondary antibody. After washing, the cells were analyzed on the CytoFLEX flow cytometer (Beckman Coulter) and the data was analyzed by FlowJo software.

The target in experiment [12] is T2, cynomolgus monkey CD3 on T cells. Nature of the experiment: flow cytometry, monkey CD3+ T cells.
In experiment [13] the target is T3, human CD20 on cells (human B cells; …). Nature of the experiment: flow cytometry, human B cells.
Excerpt: as §2

The target is the same in experiment [14]. The experiment is described as follows: binding to Raji cells.
For experiment [15] the target is unchanged. The experiment is described as follows: flow cytometry, NAMALWA cells. As to the method: as §1

T1 sequence (P07766 23-207): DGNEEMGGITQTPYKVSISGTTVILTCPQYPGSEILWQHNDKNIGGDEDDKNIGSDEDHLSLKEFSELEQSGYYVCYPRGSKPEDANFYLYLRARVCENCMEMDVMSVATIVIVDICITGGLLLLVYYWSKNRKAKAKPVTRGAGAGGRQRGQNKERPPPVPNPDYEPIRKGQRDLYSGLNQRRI

B1: TY25606 (bispecific antibody, human IgG1, kappa, N297A)
light: QIVLSQSPAILSASPGEKVTMTCRASSSVSYIHWFQQKPGKSPKPWIYATSNLASGVPVRFSGSGSGTSYSLTISRVEAEDAATYYCQQWTSNPPTFGGGTKVEIKRTVAAPSVFIFPPSDEQLKSGTASVVCLLNNFYPREAKVQWKVDNALQSGNSQESVTEQDSKDSTYSLSSTLTLSKADYEKHKVYACEVTHQGLSSPVTKSFNRGEC
heavy: EVQLVQSGAEVKKPGSSVKVSCKASGYTFTSYNMHWVRQAPGKGLEWIGAIYPGSGDTSYNQKFKGRVTITADKSTSTAYMELSSLRSEDTAVYYCARSTYYGGDWYFNVWGQGTLVTVSSASTKGPSVFPLAPSSKSTSGGTAALGCLVKDYFPEPVTVSWNSGALTSGVHTFPAVLQSSGLYSLSSVVTVPSSSLGTQTYICNVNHKPSNTKVDKKVEPKSCDKTHTCPPCPAPELLGGPSVFLFPPKPKDTLMISRTPEVTCVVVDVSHEDPEVKFNWYVDGVEVHNAKTKPREEQYASTYRVVSVLTVLHQDWLNGKEYKCKVSNKALPAPIEKTISKAKGQPREPQVYTLPPSRKKLTKNQVKLTCLVKGFYPSDIAVEWESNGQPENNYKTTPPVLDCDGSFFLYSKLTVDKSRWQQGNVFSCSVMHEALHNHYTQKSLSLSPGK
chain: EVGSYPYDDPDCPSHESDCDQGGGPLGLAGGSQAVVTQEPSLTVSPGGTVTLTCGSSTGAVTTSNYPNWVQQKPGQAPRGLIGGTNKRAPGVPARFSGSLLGGKAALTLSGAQPEDEAEYYCALWYSNLWVFGGGTKLTVLGGGGSGGGGSGGGGSGGGGSEVQLVESGGGLVQPGGSLRLSCAASGFTFNTYAINWVRQAPGKGLEWVGRIRSKYNNYATYYAESVKGRFTISRDDSKNTLYLQINSLRAEDTAVYYCVRHGNFGTSYVSWFAYWGQGTLVTVSSEPKSSDKTHTCPPCPAPELLGGPSVFLFPPKPKDTLMISRTPEVTCVVVDVSHEDPEVKFNWYVDGVEVHNAKTKPREEQYASTYRVVSVLTVLHQDWLNGKEYKCKVSNKALPAPIEKTISKAKGQPREPQVYTDPPSRDELTKNQVSLTCLVDGFYPSDIAVEWESNGQPENCYKTTPPVLDSDGSFFLYSKLTVDKSRWQQGNVFSCSVMHEALHNHYTQDSLSLSPGK
notes: also called SAFEbody/bispecific
For the molecule B1, the EC50 (commonly the midpoint of the concentration-response curve) was over 2000 nM in [1]; 43 nM in experiment [4]; 121 nM in experiment [5]; over 2000 nM in experiment [6]; 16 nM in experiment [7]; over 2000 nM in experiment [8]. Also, the EC50 in experiment [9] was determined as 35 nM; in [10], 78.2 nM; in experiment [11] it was 14.4 nM; in [13], 11.7 nM; in experiment [14], 35 nM; in experiment [15], 90.4 nM. Moreover, the “max MFI” value in [2] was determined as 1090 MFI; in experiment [11] it was 36000 MFI; in [12], 174 MFI; in [13], 51600 MFI. Also, the binding result in [3] is “no binding”. Besides, the “Max MFI” value in [4] is 5790 MFI; in [5], 942000 MFI; in [7], 2.67e+06 MFI; in experiment [9], 24200 MFI; in experiment [15] it was 656000 MFI.
